Measured values: patent US20030170252

Experiments:
[1] = target: p33^QIK, quiescence induced kinase, 33-kDa Krsl-related cytoplasmic protein kinase, endogenous in mouse NIH3T3 cytosolic lysate (S20)
[2] = target: p35, protein kinase of 35 kDa in STSP-treated NIH3T3 cells
[3] = target: T1, p63^Krsl protein kinase (product of the Krsl gene), endogenous in mouse NIH3T3 cytosolic lysate (S20), Q9JI10
T1 chain: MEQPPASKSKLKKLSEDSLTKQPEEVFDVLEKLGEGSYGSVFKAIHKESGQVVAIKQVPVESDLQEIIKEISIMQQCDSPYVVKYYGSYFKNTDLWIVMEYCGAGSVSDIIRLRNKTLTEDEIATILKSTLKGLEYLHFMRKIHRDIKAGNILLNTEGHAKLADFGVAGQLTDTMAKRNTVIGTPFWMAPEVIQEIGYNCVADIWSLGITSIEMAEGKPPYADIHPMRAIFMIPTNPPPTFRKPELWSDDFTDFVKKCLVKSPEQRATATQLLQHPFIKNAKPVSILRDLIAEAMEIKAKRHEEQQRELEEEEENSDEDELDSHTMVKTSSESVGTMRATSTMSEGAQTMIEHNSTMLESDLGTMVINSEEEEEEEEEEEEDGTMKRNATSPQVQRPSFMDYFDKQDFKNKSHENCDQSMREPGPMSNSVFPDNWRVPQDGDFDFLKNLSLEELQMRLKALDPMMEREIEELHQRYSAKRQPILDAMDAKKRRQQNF

B1: Recombinant human Caspase-3 (Alexis Biochemicals) (protein)
chain: SGISLDNSYKMDYPEMGLCIIINNKNFHKSTGMTSRSGTDVDAANLRETFRNLKYEVRNKNDLTREEIVELMRDVSKEDHSKRSSFVCVLLSHGEEGIIFGTNGPVDLKKITNFFRGDRCRSLTGKPKLFIIQACRGTELDCGIETDSGVDDDMACHKIPVEADFLYAYSTAPGYYSWRNSKDGSWFIQSLCAMLKQYADKLEFMHILTRVNRKVATEFESFSFDATFHAKKQIPCIVSMLTKELYFYH
kinase activity in Ab-KQ immune complexes after caspase-3 treatment (in-gel kinase assay, MBP substrate) [1]: no change was detected in the kinase activity of p33^QIK which was isolated from osmotic-stressed quiescent cultures (FIG. 8, lanes 6 to 8) or growing cultures
kinase activity in Ab-KQ immune complexes after caspase-3 treatment (in-gel kinase assay, MBP substrate) [2]: both the kinase activities of p63^Krsl and p35 decreased in correlation with an increased p33^QIK activity that was completely blocked by a wide range caspase inhibitor Z-D-CH2-DCB
kinase activity in Ab-KQ immune complexes after caspase-3 treatment (in-gel kinase assay, MBP substrate) [3]: both the kinase activities of p63^Krsl and p35 decreased in correlation with an increased p33^QIK activity that was completely blocked by a wide range caspase inhibitor Z-D-CH2-DCB

B2: Lambda protein phosphatase (lambda PPase) (NE BioLabs) (protein)
chain: MRYYEKIDGSKYRNIWVVGDLHGCYTNLMNKLDTIGFDNKKDLLISVGDLVDRGAENVECLELITFPWFRAVRGNHEQMMIDGLSERGNVNHWLLNGGGWFFNLDYDKEILAKALAHKADELPLIIELVSKDKKYVICHADYPFDEYEFGKPVDHQQVIWNRERISNSQNGIVKEIKGADTFIFGHTPAVKPLKFANQMYIDTGAVFCGNLTLIQVQGEGA
kinase activity of p33^QIK in Ab-KQ immune complexes after phosphatase treatment (in-gel kinase assay, MBP substrate) [1]: A similar result was obtained by using Lambda phosphatase in the reaction
